Source: the RNAGym collection of RNA variant scans (doi:10.1073/pnas.2313332121)

B1: TPR t1 (parent)
chain: GACCAAUCUGCCCUCAGAGCUCGAGAACAUCUUCGGAUGCAGAGGAGGCAGGCUUCGGUGGCGCGAUAGCGCCAACGUCCUCAACCUCCAAUGCAUCCCACCACAUGAUGAUGCCUGAAGAGCCUUGGUUUUUUG

Variants of: B1
Test: polymerase ribozyme fitness, log enrichment relative to wild type (log ratio); higher = more active; in vitro selection for triplet polymerase activity
How it was run: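 To select mutant libraries of each subunit of a heterodimeric triplet polymerase ribozyme, built by PCR and transcribed, each was annealed with a biotinylated primer, partner subunit and triplets, then incubated frozen at −7 °C. Extended constructs were gel-excised, captured on streptavidin beads and amplified by RT-PCR, in one round carried out in triplicate. Illumina sequencing of input and output libraries kept genotypes with ≥10 input reads and ≥1 read per output. Fitness is the base-2 logarithm of genotype enrichment relative to wild-type enrichment, from inverse-variance-weighted replicate averages.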

| Variant | polymerase ribozyme fitness (log ratio) |
| --- | --- |
| GACCAAUCUGCCCUCAGAGCUCGAGAACAUCUUCGGAUGCAGAGGAGGCAGGCUUCGGUGGCGCGAUAGCGCCAAUGUCCUCAACCUCCAAUGCAUUCCACCACAUGAUGAUGCCUGAAGAGCCUUGGUUUUUUG | -0.795 |
| GACCAAUCUGCCCUCAGAGCUCGAGAACAUCUUCGGAUGCAGAGGAGGCAGGCUUCGGUGGCGCGAUAGCGCCAGCGUCCUCAACCUCCAAUGCAUCCCACCACAUGAUGAUGCCUGAAGAGCCUUGGCUUUUUG | -0.465 |
| GACCAAUCUGCCCUCAGAGCUCGAGAACAUCUUCGGAUGCAGAGGAGGCAGGCUUCGGUGGCGCGAUAGCGCCAAAGUCCUCAACCUCCAAUGCAUCCCACCACAUGAUGAUGCCUGAAGAGGCUUGGUUUUUUG | -0.164 |
| GACCAAUCUGCCCUCAGAGCUCGAGAACAUCUUCGGAUGCAGAGGAGGCAGGCUUCGGUGGCGCGAUAGCGCCAGCGUCCUCAAUCUCCAAUGCAUCCCACCACAUGAUGAUGCCUGAAGAGCCUUGGUCUUUUG | -0.982 |
| GACCAAUCUGCCCUCAGAGCUCGAGAACAUCUUCGGAUGCAGAGGAGGCAGGCUUCGGUGGCGCGAUAGCGCCAAGUGCCUCAACCUCCAAUGCAUCCCACCACAUGAUGACGCCUGAAGAGCCUUGGUUUUUUG | 2.21 |
| GACCAAUCUGCCCUCAGAGCUCGAGAACAUCUUCGGAUGCAGAGGAGGCAGGCUUCGGUGGCGCGAUAGCGCCAAGGUCCUCAACCGCCAAUGCAUCCCACCACAUGAUGAUGCCUGAAGAGCCUUGGUUUUUUG | -0.0658 |
| GACCAAUCUGCCCUCAGAGCUCGAGAACAUCUUCGGAUGCAGAGGAGGCAGGCUUCGGUGGCGCGAUAGCGCCAAAGUCCUCAACCUCCAAUGCUUCCCACCACAUGAUGAUGCUUGAAGAGCCUUGGUUUUUUG | -4.9 |
| GACCAAUCUGCCCUCAGAGCUCGAGAACAUCUUCGGAUGCAGAGGAGGCAGGCUUCGGUGGCGCGAUAGCGCCAAAGUCCUCAACCUCCAAUGCAUCCCACCACAUGAUGAUGCUUGAAGAGCCUUGGAUUUUUG | -4.13 |
| GACCAAUCUGCCCUCAGAGCUCGAGAACAUCUUCGGAUGCAGAGGAGGCAGGCUUCGGUGGCGCGAUAGCGCCAAGGUCCUCAACCUCCAAUGCGUCCCACCACAUGAUGAUGCCUGAAGAGCCUUGGUUUUUUG | -0.229 |
| GACCAAUCUGCCCUCAGAGCUCGAGAACAUCUUCGGAUGCAGAGGAGGCAGGCUUCGGUGGCGCGAUAGCGCCAAAGUCCUCAACCUCCAAUGCAUCCCACCACAUGAUAAUGCCUGAAGAGCCUUGGUUUUUUG | -1.79 |
| GACCAAUCUGCCCUCAGAGCUCGAGAACAUCUUCGGAUGCAGAGGAGGCAGGCUUCGGUGGCGCGAUAGCGCCAAUGUCCUCAACCUCCAAUGCAUCCCACCACAUGAUGAUGCCUGAAGAGACUUGGUUUUUUG | 0.138 |
| GACCAAUCUGCCCUCAGAGCUCGAGAACAUCUUCGGAUGCAGAGGAGGCAGGCUUCGGUGGCGCGAUAGCGCCAGCGUCCUCAACCUCCAAUGAAUCCCACCACAUGAUGAUGCCUGAAGAGCCUUGGUUUUUUG | -0.695 |
| GACCAAUCUGCCCUCAGAGCUCGAGAACAUCUUCGGAUGCAGAGGAGGCAGGCUUCGGUGGCGCGAUAGCGCCAAGGUCCUCAACCUCCAAUACAUCCCACCACAUGAUGAUGCCUGAAGAGCGUUGGUUUUUUG | 1.31 |
| GACCAAUCUGCCCUCAGAGCUCGAGAACAUCUUCGGAUGCAGAGGAGGCAGGCUUCGGUGGCGCGAUAGCGCCAAGGACCACAACCUCGAAUGCAUCCCACCACAUGAUGAUGCCUGAUGAGCCUUGGUUUUUUG | -3.52 |
| GACCAAUCUGCCCUCAGAGCUCGAGAACAUCUUCGGAUGCAGAGGAGGCAGGCUUCGGUGGCGCGAUAGCGCCAAAGUCCUCAAACUCCAAUGCAUCCCACCACAUGAUGAUGCCUGAAGAGCCUUGGUUUUUUG | -0.928 |
| GACCAAUCUGCCCUCAGAGCUCGAGAACAUCUUCGGAUGCAGAGGAGGCAGGCUUCGGUGGCGCGAUAGCGCCAAAGUCCUCAACCUCCAAUGCAUCCCACCACAUGAUGAUGCUUGAAGAGCCUUGGUUUUUUG | -2.9 |
| GACCAAUCUGCCCUCAGAGCUCGAGAACAUCUUCGGAUGCAGAGGAGGCAGGCUUCGGUGGCGCGAUAGCGCCAUCGUCCUCAACCUCCAAUGCCUCCCACCACAUGAUGAUGCCCGAAGAGCCCUGGUUUUUUG | -3.04 |
| GACCAAUCUGCCCUCAGAGCUCGAGAACAUCUUCGGAUGCAGAGGAGGCAGGCUUCGGUGGCGCGAUAGCGCCAGCGUCCUCAACCUCCAAUGCAUCCCACCACAGGAUGAUGCCUGAAGAGCAUUGGUUUUUUG | 0.661 |
| GACCAAUCUGCCCUCAGAGCUCGAGAACAUCUUCGGAUGCAGAGGAGGCAGGCUUCGGUGGCGCGAUAGCGCCAAAGUCCUCAUCCUCCAAUGCAUCCCACCACAAGAUGAUGCCUGAAUAGCCUUGGUUUUUUG | -2.24 |
| GACCAAUCUGCCCUCAGAGCUCGAGAACAUCUUCGGAUGCAGAGGAGGCAGGCUUCGGUGGCGCGAUAGCGCCAAUGUCCUCAACCUUCAAUGCAUCCCACCACAUGAUGAUGCCUGAAGAGCCUUGGUUUUUUG | -0.561 |
| GACCAAUCUGCCCUCAGAGCUCGAGAACAUCUUCGGAUGCAGAGGAGGCAGGCUUCGGUGGCGCGAUAGCGCCAAGGCCCUCAACCUCCAAUGCAUCCCACCACAUGAUGAUGCCUGAAGAGCCUUGGUUUUUUU | -1.36 |
